Legend:
[1] = biological target: T1, alpha-thrombin (active site blocked with fluorescein-PPACK) (Homo sapiens, UniProt P00734;P00734 P00734:328-363,P00734:364-622); assay: fluorometric titration; duplicate measurement gave 110 nM; 20 mM Tris, 150 mM NaCl, pH 7.4
[2] = biological target: T2, thrombin (IIa), active (UniProt P00734;P00734 P00734:328-363,P00734:364-622); assay: inhibition; kD in the hydrolysis of Chromozym-thrombin
[3] = biological target: T1, alpha-thrombin (active site blocked …); assay: fluorometric titration; duplicate measurement gave 99 nM; 20 mM Tris, 150 mM NaCl, pH 7.4
[4] = biological target: T2, thrombin (IIa), active; assay: inhibition; inhibition of coagulation
[5] = biological target: T1, alpha-thrombin (active site blocked …); assay: fluorometric titration, 20 mM Tris, 150 mM NaCl, pH 7.4; exosite 2
[6] = biological target: T1, alpha-thrombin (active site blocked …); assay: fluorometric titration, 492/522 nm, 100 nM thrombin, 20 mM Tris, 150 mM NaCl, pH 7.4; exosite 1
[7] = biological target: T1, alpha-thrombin (active site blocked …); assay: fluorometric titration, 20 mM Tris, 150 mM NaCl, pH 7.4; exosite 1

B1: ODN 2f (ssDNA)
DNA: AGTCCGTGGTAGGGCAGGTTGGGGTGACT
modifications: 3'-biotin-streptavidin
- Kd [1]: 89 nM
- Kd [2]: 10.2 nM

B2: ODN 1f (ssDNA)
DNA: GGTTGGTGTGGTTGG
modifications: 3'-biotin-streptavidin
- Kd [3]: 41 nM
- Ki [4]: ~100 nM

B3: ODN 2e (ssDNA)
DNA: AGTCCGTGGTAGGGCAGGTTGGGGTGACT
modifications: 3'-biotin (biotin TEG)
- Kd [5]: 85 nM

B4: ODN 1a (ssDNA)
DNA: GGTTGGTGTGGTTGG
- Kd [6]: 45 nM

B5: ODN 2a (ssDNA)
DNA: AGTCCGTGGTAGGGCAGGTTGGGGTGACT
- Kd [5]: 16.5 nM

B6: ODN 1e (ssDNA)
DNA: GGTTGGTGTGGTTGG
modifications: 3'-biotin (biotin TEG)
- Kd [7]: 55 nM

From US6780850
